“And” between values parts separate entries of the source, which are not always exact repeats. Equal entries are not always repeated. Where two headings read alike, the source gives them in different places. Where no end group is shown, it is not given here.
T1: human IL-18 receptor (alpha and beta subunits) on HEK-BLUE IL-18 reporter cells (human, UniProt Q13478 19-541; O95256 20-599)
T1 sequence (looked up) 1: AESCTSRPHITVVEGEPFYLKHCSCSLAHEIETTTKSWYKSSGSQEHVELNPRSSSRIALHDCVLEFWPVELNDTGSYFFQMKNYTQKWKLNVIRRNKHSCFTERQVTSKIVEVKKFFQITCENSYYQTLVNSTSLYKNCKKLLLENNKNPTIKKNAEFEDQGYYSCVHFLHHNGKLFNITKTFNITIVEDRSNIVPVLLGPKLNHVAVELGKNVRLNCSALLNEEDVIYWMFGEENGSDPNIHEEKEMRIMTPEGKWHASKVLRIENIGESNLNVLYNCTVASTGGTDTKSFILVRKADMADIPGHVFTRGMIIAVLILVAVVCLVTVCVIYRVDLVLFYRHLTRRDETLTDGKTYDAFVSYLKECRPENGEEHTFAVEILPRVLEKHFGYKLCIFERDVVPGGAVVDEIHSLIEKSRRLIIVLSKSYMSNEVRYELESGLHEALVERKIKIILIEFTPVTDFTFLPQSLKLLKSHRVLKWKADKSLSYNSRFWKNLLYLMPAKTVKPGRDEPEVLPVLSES
T1 sequence (looked up) 2: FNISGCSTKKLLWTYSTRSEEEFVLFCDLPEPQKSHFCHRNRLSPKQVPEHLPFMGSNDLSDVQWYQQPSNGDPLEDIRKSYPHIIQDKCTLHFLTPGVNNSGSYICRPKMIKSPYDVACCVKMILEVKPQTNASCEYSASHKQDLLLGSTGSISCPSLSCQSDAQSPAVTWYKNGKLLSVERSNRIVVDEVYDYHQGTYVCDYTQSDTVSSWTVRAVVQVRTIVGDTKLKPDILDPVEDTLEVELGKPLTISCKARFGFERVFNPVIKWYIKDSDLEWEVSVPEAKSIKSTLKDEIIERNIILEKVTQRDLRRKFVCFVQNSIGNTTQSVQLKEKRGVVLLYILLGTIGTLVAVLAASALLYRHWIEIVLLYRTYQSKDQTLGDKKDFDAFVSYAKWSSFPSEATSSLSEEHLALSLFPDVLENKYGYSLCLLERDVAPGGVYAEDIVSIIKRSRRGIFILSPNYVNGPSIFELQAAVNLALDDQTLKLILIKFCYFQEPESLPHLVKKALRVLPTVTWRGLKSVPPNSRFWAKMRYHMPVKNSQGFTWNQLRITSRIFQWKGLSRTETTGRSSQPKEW

T2: Human recombinant IL-18 (R&D Systems #9124-IL-050/CF) (human, UniProt Q14116 1-193)
T2 sequence: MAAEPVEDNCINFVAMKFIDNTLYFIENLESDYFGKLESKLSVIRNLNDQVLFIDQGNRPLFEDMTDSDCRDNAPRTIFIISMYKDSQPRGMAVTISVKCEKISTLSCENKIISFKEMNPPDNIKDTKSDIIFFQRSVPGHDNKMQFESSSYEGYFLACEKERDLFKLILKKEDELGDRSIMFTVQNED

B1: IL-18 Binding Protein (IL-18BP) Fc fusion (Fc fusion, not shown: a dimerising Fc or GST)
chain: TPVSQTTTAATASVRSTKDPCPSQPPVFPAAKQCPALEVTWPEVEVPLNGTLSLSCVACSRFPNFSILYWLGNGSFIEHLPGRLWEGSTSRERGSTGTQLCKALVLEQLTPALHSTNFSCVLVDPEQVVQRHVVLAQLWAGLRATLPPTQEALPSSHSSPQQQG

Tests used:
[1] = biological target: B1; assay: direct binding ELISA; biotinylated peptide on NeutrAvidin, IL-18BP Fc titrated, anti-human IgG Fc-HRP
Experimental: Binding of synthetic monomer peptides to IL-18 Binding Protein (IL-18BP) was measured using a direct binding ELISA. Briefly, 96-well ELISA plates were coated with NeutrAvidin (NA) at 5 μg per well in PBS, washed, then blocked with PBS containing 1% BSA. Wells were washed and representative peptides, synthesized with a C-terminal biotin were diluted to 300 nM in assay buffer and added to the NA coated wells. Wells were washed and serial dilutions starting at 100 nM of IL-18R subunits, IL-18BP from either of two sources (Acro #ILP-H5253 and R&D #119-BP), and control IgG Fc fusions) were added to the wells and incubated for 1 hr at 4° C. Then plates were washed and goat anti-human IgG Fc-HRP (Southern Biotech #2048-05) detection antibody was added for 1 hr. Wells were developed with TMB for 5-15 min and the enzyme reaction was stopped with a H₂SO₄ solution.

[2] = biological target: T1, human IL-18 receptor (alpha and beta …); assay: cell-based or functional assay
[3] = biological target: T1, human IL-18 receptor (alpha and beta …); assay: cell-based or functional assay; remark: listed apart in the source
[4] = biological target: T2, Human recombinant IL-18 (R&D Systems …); assay: cell-based or functional assay

| Binder | binding result [1] | efficacy (% maximum signal (Emax) vs. IL-18 in reporter assay) [3] [%] | potency (EC50), HEK-BLUE IL-18 reporter assay (SEAP) [3] | also measured |
| --- | --- | --- | --- | --- |
| GGELCWRPFSFVDCEEGG-biotin (cysteine pairing not given here, also called bn-alpha synthetic F1a Consensus Construct; alpha synthetic F1 peptide, C-terminal biotinylated form) [biotinylated alpha synthetic F1a Consensus Construct] | no binding (tested: 100 nM) | – | – | – |
| GGCPNWLSDHLSEIWCGG-biotin (cysteine pairing not given here) [C-terminally biotinylated form of peptide 5C09] | no binding (tested: 100 nM) | – | – | – |
| GGLCWYFGGTVRGPCLPAPAPAPAPAPAPAPAFFECFYSPGHEWCIPSGG (designed binder, not fully specified; cysteine pairing not given here; also: linker of formula V (drawing, may hold non-peptide parts) between beta and alpha moieties) [Dimer 3] | – | 36 | < 30 nM | potency (EC50), HEK-BLUE IL-18 reporter assay (SEAP) [2]: < 10 nM |
| GGCPNWLSDHLSEIWCPAPAPAPAPAPAPAPAICWVPFHYLDELMCTGG (designed binder, not fully specified; cysteine pairing not given here; also: linker of formula V (drawing, may hold non-peptide parts) between beta and alpha moieties) [Dimer 1] | – | 17 | < 1000 nM | – |
| GGLCWYFGGTVRGPCLGG-biotin (cysteine pairing not given here, also called bn-beta family 2 synthetic construct) [biotinylated beta family 2 synthetic construct] | no binding (tested: 100 nM) | – | – | – |
| GGCPNWLSDHLSEIWCPAPAPAPAPAPAPAPAFFECFYSPGHEWCIPSGG (designed binder, not fully specified; cysteine pairing not given here; also: linker of formula V (drawing, may hold non-peptide parts) between beta and alpha moieties) [Dimer 2] | – | 34 | > 100 nM and < 300 nM | – |
| GGFFECFYSPGHEWCIPSGG-biotin (cysteine pairing not given here, also called bn7C06) [biotinylated 7C06] | no binding (tested: 100 nM) | – | – | – |
| GGICWVPFHYLDELMCTGG-biotin (cysteine pairing not given here, also called bn4D07) [biotinylated 4D07] | no binding (tested: 100 nM) | – | – | – |
| B1 | – | – | – | IC50, inhibition of IL-18 bioactivity in HEK-BLUE IL-18 reporter assay [4]: ~1 nM |

Source: patent publication US20240158457A1 (MEDIKINE, published 2024)
